Common to all, as to assay: SPR; biotinylated ADO or ADO mutant immobilised on a Biotin CAP chip (~2500-3000 RU), substrate peptide injected; Biacore T200, 4 °C; 20 mM HEPES pH 7.5, 500 mM NaCl, 10 mM DTT, 0.1% tween-20; 50 µL/minute; multi-cycle or single-cycle mode not given; each cell is one of three independent measurements
Common to all, as to settings: both partners purified

Test [1] addresses T1, ADO-Y222A, N-terminally His-tagged and biotinylated (human, UniProt Q96SZ5 1-270, Y222A, biotin (biotinylated during expression)).
T1 construct: 2-aminoethanethiol dioxygenase (ADO), human, UniProt Q96SZ5, full length, site-directed mutant; source: E. coli Rosetta2(DE3), purified (Ni-NTA, SEC); not shown: biotinylation tag (from the vector pQE80L-Navi), N-terminal, kept
T1 sequence (looked up): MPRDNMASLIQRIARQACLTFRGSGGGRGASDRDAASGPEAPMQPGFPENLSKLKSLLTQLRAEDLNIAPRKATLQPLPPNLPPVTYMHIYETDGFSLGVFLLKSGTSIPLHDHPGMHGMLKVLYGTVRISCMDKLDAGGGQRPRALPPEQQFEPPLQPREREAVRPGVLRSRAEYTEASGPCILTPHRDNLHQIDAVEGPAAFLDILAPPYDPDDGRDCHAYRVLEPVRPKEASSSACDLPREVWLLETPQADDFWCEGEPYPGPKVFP

In test [2] the target is T2, ADO-F256A, N-terminally His-tagged and biotinylated (human, UniProt Q96SZ5 1-270, F256A, biotin (biotinylated during expression)).
T2 construct: 2-aminoethanethiol dioxygenase (ADO), human, UniProt Q96SZ5, full length, site-directed mutant; source: E. coli Rosetta2(DE3), purified (Ni-NTA, SEC); not shown: biotinylation tag (from the vector pQE80L-Navi), N-terminal, kept
T2 sequence (looked up): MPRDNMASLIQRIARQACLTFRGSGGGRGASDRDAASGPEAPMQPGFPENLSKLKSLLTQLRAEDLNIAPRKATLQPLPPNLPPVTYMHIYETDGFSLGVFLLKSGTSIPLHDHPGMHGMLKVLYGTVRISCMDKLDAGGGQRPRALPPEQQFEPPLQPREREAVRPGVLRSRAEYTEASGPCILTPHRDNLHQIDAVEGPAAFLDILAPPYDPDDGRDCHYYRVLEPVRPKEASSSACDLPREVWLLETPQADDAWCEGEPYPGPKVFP

The target in test [3] is T3, ADO-Y212F, N-terminally His-tagged and biotinylated (human, UniProt Q96SZ5 1-270, Y212F, biotin (biotinylated during expression)).
T3 construct: 2-aminoethanethiol dioxygenase (ADO), human, UniProt Q96SZ5, full length, site-directed mutant; source: E. coli Rosetta2(DE3), purified (Ni-NTA, SEC); not shown: biotinylation tag (from the vector pQE80L-Navi), N-terminal, kept
T3 sequence (looked up): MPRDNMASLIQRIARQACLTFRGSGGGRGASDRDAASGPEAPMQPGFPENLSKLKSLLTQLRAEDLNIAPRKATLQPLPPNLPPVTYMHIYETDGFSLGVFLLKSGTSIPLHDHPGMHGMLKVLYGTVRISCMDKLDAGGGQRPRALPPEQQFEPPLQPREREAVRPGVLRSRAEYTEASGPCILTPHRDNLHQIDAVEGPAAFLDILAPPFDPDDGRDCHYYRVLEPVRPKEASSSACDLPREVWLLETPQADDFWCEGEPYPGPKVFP

Test [4] concerns the target T4, ADO-Y87F, N-terminally His-tagged and biotinylated (human, UniProt Q96SZ5 1-270, Y87F, biotin (biotinylated during expression)).
T4 construct: 2-aminoethanethiol dioxygenase (ADO), human, UniProt Q96SZ5, full length, site-directed mutant; source: E. coli Rosetta2(DE3), purified (Ni-NTA, SEC); not shown: biotinylation tag (from the vector pQE80L-Navi), N-terminal, kept
T4 sequence (looked up): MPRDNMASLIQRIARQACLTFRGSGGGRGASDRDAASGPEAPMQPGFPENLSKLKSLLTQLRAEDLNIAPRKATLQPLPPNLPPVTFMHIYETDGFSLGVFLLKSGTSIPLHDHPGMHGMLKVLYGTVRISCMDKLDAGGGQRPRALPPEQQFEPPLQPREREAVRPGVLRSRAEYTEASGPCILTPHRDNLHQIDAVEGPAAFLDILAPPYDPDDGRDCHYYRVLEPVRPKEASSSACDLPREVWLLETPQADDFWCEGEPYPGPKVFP

Test [5] concerns the target T5, ADO-Y87A, N-terminally His-tagged and biotinylated (human, UniProt Q96SZ5 1-270, Y87A, biotin (biotinylated during expression)).
T5 construct: 2-aminoethanethiol dioxygenase (ADO), human, UniProt Q96SZ5, full length, site-directed mutant; source: E. coli Rosetta2(DE3), purified (Ni-NTA, SEC); not shown: biotinylation tag (from the vector pQE80L-Navi), N-terminal, kept
T5 sequence (looked up): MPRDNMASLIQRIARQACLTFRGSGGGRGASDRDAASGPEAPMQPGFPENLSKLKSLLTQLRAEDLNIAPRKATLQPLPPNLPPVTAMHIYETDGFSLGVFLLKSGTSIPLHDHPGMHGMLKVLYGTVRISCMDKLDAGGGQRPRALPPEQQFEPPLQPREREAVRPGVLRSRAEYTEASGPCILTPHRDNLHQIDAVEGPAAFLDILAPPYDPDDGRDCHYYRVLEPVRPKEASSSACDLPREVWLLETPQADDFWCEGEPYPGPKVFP

Where “and” joins values, the source holds several entries; their conditions need not be identical. Equal values may be shown once.

B1: IL32(2-15), synthetic peptide corresponding to the methionine excised N-terminus of IL32, residues 2-15 (peptide, UniProt P24001 2-15, looked up)
peptide: CFPKVLSDDMKKLK
notes: interleukin 32 (IL32), residues 2-15 (N-terminal Cys exposed); also called 14-mer IL32; source: synthetic peptide
In the case of B1, the Kd in test [1] is 0.921 µM and 1.04 µM and 1.1 µM; in test [2], 0.751 µM and 0.9 µM and 0.973 µM; in test [3], 8.76 µM and 9.12 µM and 9.82 µM; in test [4] it was 0.303 µM and 0.327 µM and 0.329 µM; in test [5], 4.57 µM and 3.79 µM and 4.17 µM.

The values are drawn from PMC12098869, “An mRNA-display derived cyclic peptide scaffold reveals the substrate binding interactions of an N-terminal cysteine oxidase” (Nature Communications, 2025).
